Legend:
Test in all cases: cell-based or functional assay
EGFR(T790M)(h) (human) = EGFR(T790M)(h) (human) (UniProt P00533)
EphB4(h) (human) = EphB4(h) (human) (UniProt P54760)
Flt1(h) (human) = molecular target: T1, Flt1(h) (human) (UniProt P17948)
T1 sequence (looked up): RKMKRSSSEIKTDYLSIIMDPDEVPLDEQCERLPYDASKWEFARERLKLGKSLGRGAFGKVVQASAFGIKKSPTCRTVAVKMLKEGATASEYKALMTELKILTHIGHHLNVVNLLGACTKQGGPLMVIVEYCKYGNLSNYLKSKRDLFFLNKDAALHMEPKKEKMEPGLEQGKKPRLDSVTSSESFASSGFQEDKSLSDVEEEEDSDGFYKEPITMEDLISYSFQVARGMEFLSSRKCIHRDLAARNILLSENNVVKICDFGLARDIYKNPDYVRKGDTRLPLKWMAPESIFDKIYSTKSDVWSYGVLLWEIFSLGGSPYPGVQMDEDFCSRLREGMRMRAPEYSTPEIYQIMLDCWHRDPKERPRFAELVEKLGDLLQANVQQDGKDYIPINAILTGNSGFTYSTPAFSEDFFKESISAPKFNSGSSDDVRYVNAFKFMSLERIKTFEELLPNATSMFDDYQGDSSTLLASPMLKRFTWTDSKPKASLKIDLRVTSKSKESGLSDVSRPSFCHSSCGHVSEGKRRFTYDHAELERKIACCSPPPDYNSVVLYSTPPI

Flt3(D835Y)(h) (human) = molecular target: T2, Flt3(D835Y)(h) (human) (UniProt P36888)
T2 sequence (looked up): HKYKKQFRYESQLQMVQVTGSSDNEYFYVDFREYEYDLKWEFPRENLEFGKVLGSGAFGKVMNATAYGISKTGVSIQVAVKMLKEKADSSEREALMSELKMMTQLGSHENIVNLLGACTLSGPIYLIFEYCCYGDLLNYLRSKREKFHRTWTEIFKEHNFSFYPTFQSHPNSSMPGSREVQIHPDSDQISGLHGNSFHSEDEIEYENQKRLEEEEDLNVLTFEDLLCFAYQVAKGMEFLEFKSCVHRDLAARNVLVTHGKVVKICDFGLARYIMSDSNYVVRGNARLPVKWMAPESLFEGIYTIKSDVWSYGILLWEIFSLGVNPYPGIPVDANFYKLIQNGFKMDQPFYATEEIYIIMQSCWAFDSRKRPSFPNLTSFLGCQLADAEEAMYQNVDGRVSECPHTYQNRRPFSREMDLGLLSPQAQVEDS

MAPK2(h) (human) = MAPK2(h) (human) (UniProt P28482)
MSK1(h) (human) = MSK1(h) (human) (UniProt O75582)
MuSK(h) (human) = MuSK(h) (human) (UniProt O15146)
PKBα(h) (human) = PKBα(h) (human) (UniProt P31749)
PKCθ(h) (human) = PKCθ(h) (human) (UniProt Q04759)
Rsk4(h) (human) = Rsk4(h) (human) (UniProt Q9UK32)
SAPK3(h) (human) = molecular target: T3, SAPK3(h) (human) (UniProt P53778)
T3 sequence (looked up): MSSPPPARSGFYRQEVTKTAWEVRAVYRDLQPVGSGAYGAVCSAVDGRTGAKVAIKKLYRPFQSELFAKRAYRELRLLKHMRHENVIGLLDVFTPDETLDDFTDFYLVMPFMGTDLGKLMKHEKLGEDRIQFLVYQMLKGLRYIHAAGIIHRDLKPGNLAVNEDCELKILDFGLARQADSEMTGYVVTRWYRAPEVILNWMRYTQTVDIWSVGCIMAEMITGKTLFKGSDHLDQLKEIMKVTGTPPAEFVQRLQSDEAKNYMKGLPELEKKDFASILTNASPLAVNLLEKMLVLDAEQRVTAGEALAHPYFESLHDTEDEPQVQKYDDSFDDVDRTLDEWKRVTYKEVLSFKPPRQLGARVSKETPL

TSSK2(h) (human) = molecular target: T4, TSSK2(h) (human) (UniProt Q96PF2)
T4 sequence (looked up): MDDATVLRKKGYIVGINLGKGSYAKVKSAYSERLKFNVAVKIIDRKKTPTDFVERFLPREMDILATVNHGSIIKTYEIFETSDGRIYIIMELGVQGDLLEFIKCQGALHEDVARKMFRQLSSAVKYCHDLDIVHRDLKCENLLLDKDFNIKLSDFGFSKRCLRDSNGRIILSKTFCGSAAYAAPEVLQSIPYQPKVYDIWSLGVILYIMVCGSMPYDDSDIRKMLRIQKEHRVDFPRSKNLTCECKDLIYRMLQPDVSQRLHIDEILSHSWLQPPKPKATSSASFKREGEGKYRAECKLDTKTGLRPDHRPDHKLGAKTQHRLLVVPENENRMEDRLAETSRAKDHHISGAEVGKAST

WNK3(h) (human) = WNK3(h) (human) (UniProt Q9BYP7)
cKit(D816H)(h) (human) = cKit(D816H)(h) (human) (UniProt P10721)
cKit(D816V)(h) (human) = cKit(D816V)(h) (human) (UniProt P10721)
cSRC(h) (human) = cSRC(h) (human) (UniProt P12931)
mTOR(h) (human) = mTOR(h) (human) (UniProt P42345)
mTOR(h) (human), sequence (P42345 1362-2549 limits assumed): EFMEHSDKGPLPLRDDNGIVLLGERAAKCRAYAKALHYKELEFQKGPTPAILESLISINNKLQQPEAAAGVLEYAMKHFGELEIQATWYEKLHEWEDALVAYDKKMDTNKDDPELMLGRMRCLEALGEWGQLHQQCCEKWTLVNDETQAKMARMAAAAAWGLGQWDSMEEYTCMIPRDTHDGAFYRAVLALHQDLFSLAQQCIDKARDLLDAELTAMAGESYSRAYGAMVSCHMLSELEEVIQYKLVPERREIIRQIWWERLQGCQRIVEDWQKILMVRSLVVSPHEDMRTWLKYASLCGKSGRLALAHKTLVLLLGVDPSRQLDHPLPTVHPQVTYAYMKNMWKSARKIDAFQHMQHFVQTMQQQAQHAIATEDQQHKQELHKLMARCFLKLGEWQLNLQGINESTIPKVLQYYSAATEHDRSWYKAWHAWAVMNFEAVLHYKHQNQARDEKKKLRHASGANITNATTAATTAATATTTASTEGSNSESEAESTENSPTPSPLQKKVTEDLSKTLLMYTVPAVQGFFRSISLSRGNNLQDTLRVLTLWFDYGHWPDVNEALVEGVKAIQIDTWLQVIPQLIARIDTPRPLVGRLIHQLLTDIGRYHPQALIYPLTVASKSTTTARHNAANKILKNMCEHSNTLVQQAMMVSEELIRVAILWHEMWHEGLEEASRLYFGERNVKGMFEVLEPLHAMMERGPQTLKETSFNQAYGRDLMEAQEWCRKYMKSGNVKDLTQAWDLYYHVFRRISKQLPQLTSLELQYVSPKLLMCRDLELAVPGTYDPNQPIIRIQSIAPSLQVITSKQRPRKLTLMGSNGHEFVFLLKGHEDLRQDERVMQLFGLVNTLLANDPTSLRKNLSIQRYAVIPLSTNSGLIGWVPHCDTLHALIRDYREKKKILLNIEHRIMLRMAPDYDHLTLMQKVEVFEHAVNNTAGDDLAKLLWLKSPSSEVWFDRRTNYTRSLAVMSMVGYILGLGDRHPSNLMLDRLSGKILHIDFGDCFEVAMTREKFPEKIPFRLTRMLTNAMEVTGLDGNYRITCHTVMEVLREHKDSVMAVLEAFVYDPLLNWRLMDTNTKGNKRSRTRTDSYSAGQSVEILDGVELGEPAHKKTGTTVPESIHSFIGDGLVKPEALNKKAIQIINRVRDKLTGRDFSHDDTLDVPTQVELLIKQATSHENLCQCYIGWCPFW

WNK3(h) (human), sequence (Q9BYP7 1-434 limits assumed): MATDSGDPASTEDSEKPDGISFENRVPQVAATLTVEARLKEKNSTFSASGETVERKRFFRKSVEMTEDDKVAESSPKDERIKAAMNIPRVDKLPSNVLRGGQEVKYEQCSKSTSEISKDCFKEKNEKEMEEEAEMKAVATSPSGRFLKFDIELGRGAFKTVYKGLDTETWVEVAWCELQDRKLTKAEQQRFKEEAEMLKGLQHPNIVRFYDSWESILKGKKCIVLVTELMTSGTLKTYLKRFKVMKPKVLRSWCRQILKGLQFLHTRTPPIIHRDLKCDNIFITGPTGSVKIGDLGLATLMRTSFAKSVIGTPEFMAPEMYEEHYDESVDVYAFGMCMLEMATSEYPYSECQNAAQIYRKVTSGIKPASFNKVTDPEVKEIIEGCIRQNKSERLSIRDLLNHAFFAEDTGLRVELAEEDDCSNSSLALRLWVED
MuSK(h) (human), sequence (O15146 517-869 limits assumed): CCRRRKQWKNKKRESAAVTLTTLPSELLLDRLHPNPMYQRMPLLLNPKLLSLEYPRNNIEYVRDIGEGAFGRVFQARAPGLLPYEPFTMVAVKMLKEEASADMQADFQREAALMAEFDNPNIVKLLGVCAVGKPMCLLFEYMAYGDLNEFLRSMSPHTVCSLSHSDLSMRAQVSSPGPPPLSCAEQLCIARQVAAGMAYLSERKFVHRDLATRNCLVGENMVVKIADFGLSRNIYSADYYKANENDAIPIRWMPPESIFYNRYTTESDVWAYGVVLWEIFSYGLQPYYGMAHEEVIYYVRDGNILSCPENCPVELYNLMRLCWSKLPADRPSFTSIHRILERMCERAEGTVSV
MAPK2(h) (human), sequence (P28482 whole entry): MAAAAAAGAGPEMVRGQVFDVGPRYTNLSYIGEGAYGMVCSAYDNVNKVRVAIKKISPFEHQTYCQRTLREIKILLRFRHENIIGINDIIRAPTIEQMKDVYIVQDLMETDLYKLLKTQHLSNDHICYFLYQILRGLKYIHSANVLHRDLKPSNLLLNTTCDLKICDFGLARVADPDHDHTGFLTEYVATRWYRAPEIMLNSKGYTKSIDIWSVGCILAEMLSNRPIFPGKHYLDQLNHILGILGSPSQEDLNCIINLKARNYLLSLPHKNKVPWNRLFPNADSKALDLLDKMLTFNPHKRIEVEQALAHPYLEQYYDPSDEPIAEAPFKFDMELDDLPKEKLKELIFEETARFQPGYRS
cKit(D816H)(h) (human), sequence (P10721 544-976 D816H): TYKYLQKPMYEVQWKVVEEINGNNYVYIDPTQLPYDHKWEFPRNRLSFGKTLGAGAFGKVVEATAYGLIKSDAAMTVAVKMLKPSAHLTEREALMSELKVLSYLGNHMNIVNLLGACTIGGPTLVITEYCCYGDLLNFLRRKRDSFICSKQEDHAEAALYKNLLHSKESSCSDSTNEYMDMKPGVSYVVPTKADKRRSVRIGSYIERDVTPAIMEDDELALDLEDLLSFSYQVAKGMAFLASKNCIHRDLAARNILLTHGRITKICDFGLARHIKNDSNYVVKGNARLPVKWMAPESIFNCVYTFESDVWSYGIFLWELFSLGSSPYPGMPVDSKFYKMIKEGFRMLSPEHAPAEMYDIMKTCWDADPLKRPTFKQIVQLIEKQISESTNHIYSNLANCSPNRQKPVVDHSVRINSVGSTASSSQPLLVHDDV
MSK1(h) (human), sequence (O75582 whole entry): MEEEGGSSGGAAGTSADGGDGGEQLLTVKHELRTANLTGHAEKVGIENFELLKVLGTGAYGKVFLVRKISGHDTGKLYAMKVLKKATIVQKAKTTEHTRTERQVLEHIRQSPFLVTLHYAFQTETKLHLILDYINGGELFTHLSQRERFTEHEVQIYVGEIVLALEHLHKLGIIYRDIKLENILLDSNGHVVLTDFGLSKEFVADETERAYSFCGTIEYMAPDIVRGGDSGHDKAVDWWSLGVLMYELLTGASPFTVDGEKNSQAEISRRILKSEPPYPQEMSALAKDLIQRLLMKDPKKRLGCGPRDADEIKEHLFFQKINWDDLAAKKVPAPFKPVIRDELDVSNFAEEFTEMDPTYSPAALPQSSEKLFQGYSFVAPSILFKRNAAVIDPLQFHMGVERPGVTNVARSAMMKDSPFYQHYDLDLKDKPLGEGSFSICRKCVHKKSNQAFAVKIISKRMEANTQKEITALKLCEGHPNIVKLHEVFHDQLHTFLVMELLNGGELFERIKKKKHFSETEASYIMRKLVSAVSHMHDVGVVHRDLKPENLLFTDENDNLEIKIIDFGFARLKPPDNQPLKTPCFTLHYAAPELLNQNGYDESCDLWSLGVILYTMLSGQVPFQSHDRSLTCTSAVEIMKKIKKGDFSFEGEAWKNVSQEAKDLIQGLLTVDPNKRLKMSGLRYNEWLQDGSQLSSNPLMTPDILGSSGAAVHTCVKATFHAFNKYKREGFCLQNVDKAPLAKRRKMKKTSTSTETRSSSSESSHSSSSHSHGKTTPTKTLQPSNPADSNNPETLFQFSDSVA
PKBα(h) (human), sequence (P31749 whole entry): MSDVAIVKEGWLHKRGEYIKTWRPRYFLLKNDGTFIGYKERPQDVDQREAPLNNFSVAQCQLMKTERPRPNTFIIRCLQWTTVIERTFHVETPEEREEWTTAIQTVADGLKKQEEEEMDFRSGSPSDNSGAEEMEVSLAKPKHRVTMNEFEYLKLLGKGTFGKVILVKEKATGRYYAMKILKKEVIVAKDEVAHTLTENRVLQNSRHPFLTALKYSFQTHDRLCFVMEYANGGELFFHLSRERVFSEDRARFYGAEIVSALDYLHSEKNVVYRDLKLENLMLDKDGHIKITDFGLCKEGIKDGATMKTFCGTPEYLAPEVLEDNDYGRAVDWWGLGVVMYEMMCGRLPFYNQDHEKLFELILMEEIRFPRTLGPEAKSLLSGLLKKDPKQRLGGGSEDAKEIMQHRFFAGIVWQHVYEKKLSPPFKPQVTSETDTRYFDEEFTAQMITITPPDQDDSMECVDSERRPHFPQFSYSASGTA
PKCθ(h) (human), sequence (Q04759 whole entry): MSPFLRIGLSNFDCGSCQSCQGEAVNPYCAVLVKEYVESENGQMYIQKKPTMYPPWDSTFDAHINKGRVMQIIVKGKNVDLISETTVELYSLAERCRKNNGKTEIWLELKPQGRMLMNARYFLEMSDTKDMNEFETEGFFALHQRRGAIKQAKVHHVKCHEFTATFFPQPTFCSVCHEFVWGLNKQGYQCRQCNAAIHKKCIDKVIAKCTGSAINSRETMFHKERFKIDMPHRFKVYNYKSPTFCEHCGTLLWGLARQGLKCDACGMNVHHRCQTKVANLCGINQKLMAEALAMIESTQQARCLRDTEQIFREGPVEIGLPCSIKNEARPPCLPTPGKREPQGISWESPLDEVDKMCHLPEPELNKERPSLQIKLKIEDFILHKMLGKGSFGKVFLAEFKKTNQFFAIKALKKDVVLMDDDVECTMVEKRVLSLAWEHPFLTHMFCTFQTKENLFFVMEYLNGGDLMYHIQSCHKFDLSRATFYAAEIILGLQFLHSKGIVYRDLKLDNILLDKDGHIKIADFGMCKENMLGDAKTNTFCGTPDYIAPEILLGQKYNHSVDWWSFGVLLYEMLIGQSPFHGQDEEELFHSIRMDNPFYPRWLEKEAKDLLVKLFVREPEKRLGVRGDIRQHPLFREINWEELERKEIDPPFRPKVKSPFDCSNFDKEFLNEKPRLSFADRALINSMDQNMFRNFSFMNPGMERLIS
cKit(D816V)(h) (human), sequence (P10721 544-976 D816V): as the sequence (P10721 544-976 D816H) above, with H273V counted along it

% activity, 100 µM (EGFR(T790M)(h) (human)): 70%
% activity, 100 µM (EphB4(h) (human)): 38%
% activity, 100 µM (Flt1(h) (human)): 27%
% activity, 100 µM (Flt3(D835Y)(h) (human)): 65%
% activity, 100 µM (MAPK2(h) (human)): 60%
% activity, 100 µM (MSK1(h) (human)): 8%
% activity, 100 µM (MuSK(h) (human)): 27%
% activity, 100 µM (PKBα(h) (human)): 30%
% activity, 100 µM (PKCθ(h) (human)): 62%
% activity, 100 µM (Rsk4(h) (human)): 29%
% activity, 100 µM (SAPK3(h) (human)): 24%
% activity, 100 µM (TSSK2(h) (human)): 92%
% activity, 100 µM (WNK3(h) (human)): 9%
% activity, 100 µM (cKit(D816H)(h) (human)): 194%
% activity, 100 µM (cKit(D816V)(h) (human)): 30%
% activity, 100 µM (cSRC(h) (human)): 30%
% activity, 100 µM (mTOR(h) (human)): 135%
Substance: MMI-0500 (peptide)

Source: patent US20140072613A1, “Compositions and Methods for Treating Cutaneous Scarring” (priority 2012, published 2014)
